We go through four substances from article PMC11344771.

One experiment concerns the target SNX9-SH3GFP. As to the kind of experiment: GUV membrane recruitment assay, confocal fluorescence quantification. The following applies: PS-containing GUVs, read off a plot.
Experiment [1] has as its target rhodamine-labelled SemD (SemD^Rhod) (Chlamydia pneumoniae). As to the kind of experiment: recruitment to giant unilamellar vesicles (confocal microscopy); PS-containing GUVs with bound SemD^Rhod or mutSemD^Rhod (1 µg) and GFP-fused partner (1 µg) in PBS, room temperature, imaged 5-20 min; fluorescence intensity ratio of GUV perimeter to background.
Experiment [2] addresses N-WASP BR-GBD_(142-273) (Rattus norvegicus) (UniProt O08816). Nature of the experiment: SEC-SAXS; Superdex200 increase 10/300 GL, PBS pH 8.5 + 3 % glycerol, 20 °C; 8 mg/ml SemDΔAPH, 10 mg/ml BR-GBD, 8 mg/ml SemDΔAPH + BR-GBD, 3.3 mg/l SemDΔAPH + SNX9-SH3.
Experiment [3] addresses BR-GBD fused to GFP (BR-GBD_(GFP-His)) (Rattus norvegicus) (UniProt O08816). Nature of the experiment: pull-down; GFP-Trap agarose, BR-GBD_(GFP-His) or GFP alone as bait, equimolar test protein, 5 min RT then 30 min 4 °C, washed 6x with 10 mM Tris-HCl, 200 mM NaCl, pH 8.5; immunoblot, Elution:FT ratio normalised to the bait.
The target is the same in experiment [4]. Nature of the experiment: pull-down; GFP-Trap agarose, BR-GBD_(GFP-His) as bait, equimolar SemDΔAPHHis and Cdc42_(GppNHp) added simultaneously; immunoblot, normalised Elution:FT ratio.

Sequence of BR-GBD fused to GFP (BR-GBD_(GFP-His)) (Rattus norvegicus) (O08816 142-273): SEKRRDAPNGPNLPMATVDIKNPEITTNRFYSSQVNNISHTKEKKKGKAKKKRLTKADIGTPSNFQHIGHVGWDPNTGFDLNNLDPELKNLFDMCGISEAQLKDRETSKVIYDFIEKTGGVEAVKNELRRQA
Sequence of BR-GBDΔGFP (lacking the BR domain) (O08816 other isoform, or with tags, fused parts or gaps mutant): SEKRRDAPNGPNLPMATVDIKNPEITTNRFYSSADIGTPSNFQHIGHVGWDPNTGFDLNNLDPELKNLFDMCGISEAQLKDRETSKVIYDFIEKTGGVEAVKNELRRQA
Sequence of BR-GBD fused to GFP (BR-GBD_(GFP-His)) (O08816 142-273): as the sequence (O08816 142-273) above
Sequence of N-WASP BR-GBD_(142-273) (Rattus norvegicus) (O08816 142-273): as above

On to “rhodamine-labelled SemD (SemD^Rhod) R91V; P92A; R94V; P95A; P97V; P98A; P99V; P100A; R117V; P119A; P121V; P122A”, for which the response was 1.1 with SNX9-SH3GFP (5 min, parent: est. 950) and 1.1 in the experiment with SNX9-SH3GFP (20 min, parent: est. 830). With “BR-GBD fused to GFP (BR-GBD_(GFP-His)) (from UniProt O08816 142-273) (domain or fragment)”, the fluorescence intensity ratio (GUV perimeter to background) in experiment [1] is 44.5 fold. On to SemDΔAPH_(67-382) (domain or fragment), for which the stoichiometry N in experiment [2] worked out at 1. For the same substance, the normalised Elution:FT ratio in experiment [3] was 100%. The normalised Elution:FT ratio (with equimolar Cdc42 (GppNHp)) in experiment [4] is 100%. Consider “BR-GBDΔGFP (lacking the BR domain) (from UniProt O08816 142-273) (domain or fragment)”, for which the fold lower fluorescence intensity ratio than BR-GBDGFP (after 20 min) in experiment [1] was greater than 18 fold.
